Results taken from the Human Domainome abundance scans (Beltran et al. 2025).
± gives the uncertainty stated by the source.

B1: RNA-binding E3 ubiquitin-protein ligase MEX3C, residues 325 to 391; numbered along this chain, Q5U5Q3 (parent)
chain: GQTTVQVRVPYRVVGLVVGPKGATIKRIQQQTHTYIVTPSRDKEPVFEVTGMPENVDRAREEIEMHI

Variants of: B1
Test: abundance fitness (aPCA) (normalised: wild type 0, dead -1); higher = more abundant; growth selection in yeast, the domain comes from the species named
Settings: Homo sapiens

| Variant | abundance fitness |
| --- | --- |
| GQTTVQVRVPYRVVGLVVGPKGATIKRIQQQTHTYIVTPSRDKEPVFEVTGMPENVDRARGEIEMHI | -0.343 ± 0.056 |
| GQTTVQVRVPYRVVGLVVGPKGATIKRIQQQTHTYIVTPSRDKEPVFEVTGMPENVDRARHEIEMHI | 0.022 ± 0.16 |
| GQTTVQVRVPYRVVGLVVGPKGATIKRIQQQTHTYIVTPSRDKEPVFEVTGMPENVDRARIEIEMHI | -0.472 ± 0.11 |
| GQTTVQVRVPYRVVGLVVGPKGATIKRIQQQTHTYIVTPSRDKEPVFEVTGMPENVDRARKEIEMHI | 0.069 ± 0.11 |
| GQTTVQVRVPYRVVGLVVGPKGATIKRIQQQTHTYIVTPSRDKEPVFEVTGMPENVDRARLEIEMHI | -0.266 ± 0.071 |
| GQTTVQVRVPYRVVGLVVGPKGATIKRIQQQTHTYIVTPSRDKEPVFEVTGMPENVDRARMEIEMHI | -0.161 ± 0.11 |
| GQTTVQVRVPYRVVGLVVGPKGATIKRIQQQTHTYIVTPSRDKEPVFEVTGMPENVDRARNEIEMHI | -0.36 ± 0.12 |
| GQTTVQVRVPYRVVGLVVGPKGATIKRIQQQTHTYIVTPSRDKEPVFEVTGMPENVDRARPEIEMHI | -0.85 ± 0.16 |
| GQTTVQVRVPYRVVGLVVGPKGATIKRIQQQTHTYIVTPSRDKEPVFEVTGMPENVDRARQEIEMHI | -0.023 ± 0.084 |
| GQTTVQVRVPYRVVGLVVGPKGATIKRIQQQTHTYIVTPSRDKEPVFEVTGMPENVDRARSEIEMHI | -0.089 ± 0.06 |
| GQTTVQVRVPYRVVGLVVGPKGATIKRIQQQTHTYIVTPSRDKEPVFEVTGMPENVDRARTEIEMHI | -0.037 ± 0.088 |
| GQTTVQVRVPYRVVGLVVGPKGATIKRIQQQTHTYIVTPSRDKEPVFEVTGMPENVDRARVEIEMHI | -0.17 ± 0.076 |
| GQTTVQVRVPYRVVGLVVGPKGATIKRIQQQTHTYIVTPSRDKEPVFEVTGMPENVDRARWEIEMHI | -0.353 ± 0.09 |
| GQTTVQVRVPYRVVGLVVGPKGATIKRIQQQTHTYIVTPSRDKEPVFEVTGMPENVDRARYEIEMHI | -0.177 ± 0.13 |
| GQTTVQVRVPYRVVGLVVGPKGATIKRIQQQTHTYIVTPSRDKEPVFEVTGMPENVDRAREAIEMHI | 0.025 ± 0.059 |
| GQTTVQVRVPYRVVGLVVGPKGATIKRIQQQTHTYIVTPSRDKEPVFEVTGMPENVDRARECIEMHI | 0.054 ± 0.14 |
| GQTTVQVRVPYRVVGLVVGPKGATIKRIQQQTHTYIVTPSRDKEPVFEVTGMPENVDRAREDIEMHI | -0.494 ± 0.18 |
| GQTTVQVRVPYRVVGLVVGPKGATIKRIQQQTHTYIVTPSRDKEPVFEVTGMPENVDRAREGIEMHI | -0.679 ± 0.072 |
| GQTTVQVRVPYRVVGLVVGPKGATIKRIQQQTHTYIVTPSRDKEPVFEVTGMPENVDRAREHIEMHI | -0.602 ± 0.26 |
| GQTTVQVRVPYRVVGLVVGPKGATIKRIQQQTHTYIVTPSRDKEPVFEVTGMPENVDRAREIIEMHI | -0.318 ± 0.14 |

| Variant | abundance fitness |
| --- | --- |
| GQTTVQVRVPYRVVGLVVGPKGATIKRIQQQTHTYIVTPSRDKEPVFEVTGMPENVDRAREKIEMHI | -0.126 ± 0.093 |
| GQTTVQVRVPYRVVGLVVGPKGATIKRIQQQTHTYIVTPSRDKEPVFEVTGMPENVDRARELIEMHI | 0.115 ± 0.055 |
| GQTTVQVRVPYRVVGLVVGPKGATIKRIQQQTHTYIVTPSRDKEPVFEVTGMPENVDRAREMIEMHI | 0.132 ± 0.086 |
| GQTTVQVRVPYRVVGLVVGPKGATIKRIQQQTHTYIVTPSRDKEPVFEVTGMPENVDRARENIEMHI | -0.639 ± 0.32 |
| GQTTVQVRVPYRVVGLVVGPKGATIKRIQQQTHTYIVTPSRDKEPVFEVTGMPENVDRAREPIEMHI | -1.01 ± 0.3 |
| GQTTVQVRVPYRVVGLVVGPKGATIKRIQQQTHTYIVTPSRDKEPVFEVTGMPENVDRAREQIEMHI | 0.034 ± 0.092 |
| GQTTVQVRVPYRVVGLVVGPKGATIKRIQQQTHTYIVTPSRDKEPVFEVTGMPENVDRARERIEMHI | -0.299 ± 0.054 |
| GQTTVQVRVPYRVVGLVVGPKGATIKRIQQQTHTYIVTPSRDKEPVFEVTGMPENVDRARESIEMHI | -0.373 ± 0.085 |
| GQTTVQVRVPYRVVGLVVGPKGATIKRIQQQTHTYIVTPSRDKEPVFEVTGMPENVDRARETIEMHI | -0.52 ± 0.14 |
| GQTTVQVRVPYRVVGLVVGPKGATIKRIQQQTHTYIVTPSRDKEPVFEVTGMPENVDRAREVIEMHI | -0.114 ± 0.084 |
| GQTTVQVRVPYRVVGLVVGPKGATIKRIQQQTHTYIVTPSRDKEPVFEVTGMPENVDRAREYIEMHI | -0.255 ± 0.14 |
| GQTTVQVRVPYRVVGLVVGPKGATIKRIQQQTHTYIVTPSRDKEPVFEVTGMPENVDRAREEAEMHI | -0.845 ± 0.14 |
| GQTTVQVRVPYRVVGLVVGPKGATIKRIQQQTHTYIVTPSRDKEPVFEVTGMPENVDRAREECEMHI | -0.734 ± 0.15 |
| GQTTVQVRVPYRVVGLVVGPKGATIKRIQQQTHTYIVTPSRDKEPVFEVTGMPENVDRAREEGEMHI | -0.899 ± 0.14 |
| GQTTVQVRVPYRVVGLVVGPKGATIKRIQQQTHTYIVTPSRDKEPVFEVTGMPENVDRAREEHEMHI | -0.772 ± 0.25 |
| GQTTVQVRVPYRVVGLVVGPKGATIKRIQQQTHTYIVTPSRDKEPVFEVTGMPENVDRAREELEMHI | -0.412 ± 0.11 |
| GQTTVQVRVPYRVVGLVVGPKGATIKRIQQQTHTYIVTPSRDKEPVFEVTGMPENVDRAREEMEMHI | -0.772 ± 0.16 |
| GQTTVQVRVPYRVVGLVVGPKGATIKRIQQQTHTYIVTPSRDKEPVFEVTGMPENVDRAREENEMHI | -0.094 ± 0.26 |
| GQTTVQVRVPYRVVGLVVGPKGATIKRIQQQTHTYIVTPSRDKEPVFEVTGMPENVDRAREEPEMHI | -0.461 ± 0.098 |
| GQTTVQVRVPYRVVGLVVGPKGATIKRIQQQTHTYIVTPSRDKEPVFEVTGMPENVDRAREEQEMHI | -0.863 ± 0.22 |
